Laboratory results published in PMC7141136, “Ohr and OhrR Are Critical for Organic Peroxide Resistance and Symbiosis in Azorhizobium caulinodans ORS571”.

Key:
[1] = target: OhrR (AZC_3555) of Azorhizobium caulinodans ORS571, 6×His-tagged recombinant protein (Azorhizobium caulinodans ORS571); experiment: non-reducing SDS-PAGE; purified OhrR oxidised with 0.1 mM CuOOH for 10 min, then non-reducing SDS-PAGE; covalent dimer
[2] = target: OhrR^C121S (Azorhizobium caulinodans ORS571); experiment: as above
OhrR = target: T1, OhrR (Azorhizobium caulinodans ORS571, UniProt A8IEZ4 1-144); experiment: EMSA; reduced (2.5 mM DTT in buffer); dose-dependent; 50 mM Tris-HCl pH 8.3, 0.25 M KCl, 2.5 mM DTT, 5 mM MgCl2, 0.05 ug/mL poly(dI-dC), 2.5 mM EDTA, 1% glycerol; 20 nM DNA, 20 uL, 20 min, room temperature; 6% native PAGE in 0.5x TBE; settings: protein: recombinant; tags: N-terminal 6xHis (pET-28a); chain copies: 2; label: none (GelRed stain)
T1 sequence: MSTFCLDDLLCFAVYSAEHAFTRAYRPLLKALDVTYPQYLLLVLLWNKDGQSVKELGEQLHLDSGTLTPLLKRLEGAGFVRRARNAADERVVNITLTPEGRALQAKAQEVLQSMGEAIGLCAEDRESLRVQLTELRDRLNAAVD

## OhrR (AZC_3555) of Azorhizobium caulinodans ORS571, 6×His-tagged recombinant protein (natural protein)
[1]
  stoichiometry N: 2

## OhrR^C121S (natural protein)
[2]
  stoichiometry N: 2

B1: ohr promoter probe (181 bp) (dsDNA)
DNA 1: CAAAGGGTTAGTTTTCCGTTGCGGAAGGTTGGGTGATGTTGACGGTGGTCTGCAAAATAAGTTTGACACAATCAAATTGTGTGCTACTTAAATGGCCATGGAAGCGGCTTGGCCGTTTCTCATCGATTTCTCAAGGCACGAGGATCAAGCGATGTCCGTCGATGTGAAGTACACCACCAAG
DNA 2: CTTGGTGGTGTACTTCACATCGACGGACATCGCTTGATCCTCGTGCCTTGAGAAATCGATGAGAAACGGCCAAGCCGCTTCCATGGCCATTTAAGTAGCACACAATTTGATTGTGTCAAACTTATTTTGCAGACCACCGTCAACATCACCCAACCTTCCGCAACGGAAAACTAACCCTTTG
OhrR
  binding result: binds
